Results: the supplement of paper PMC9170038

Tested on: MS2 coat protein
Experiment: apparent KD of MS2 coat protein; designed switch direction (-1 OFF switch, 1 ON switch): -1; higher = weaker reporter binding
How it was run: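 Designed RNA switches with common flanks were made on Illumina chips by stalled E. coli RNA polymerase. Titration with SNAP-549-labelled MS2 coat protein doubled from 0.7 or 1.5 nM up to 3 µM. Apparent KD is each design's median over clusters after curve-fitting normalised fluorescence.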

[1] = input ligand: microRNA oligo, concentration not stated
[2] = Eterna round: R95, input ligand: FMN 200 uM
[3] = Eterna round: R95, input ligand: microRNA oligo, concentration not stated
[4] = Eterna round: R95, input ligand: none

Sequence	apparent KD of MS2 coat protein (input ligand: FMN 200 uM) [nM]	apparent KD of MS2 coat protein (input ligand: none) [nM]	apparent KD of MS2 coat protein [3] [nM]	further results
GCGCCAUCGUGAGAUGGCGUAAUUACAUGAGGAUCACCCAUGUAGGAUAUCGAUUGCUUUGCAGUCGAGAAGGGCGUGAUAAGU [JL ENG3 3.71] (Eterna round: R96, puzzle: Exclusion NG 3)	86	68.9	–	apparent KD of MS2 coat protein [1]: 59.5 nM
AGAAAAGCCCAUGACCGCAAGCUUUUUGCUUGUCUUACCACAUGAGGAUCACCCAUGUGACAUGGGCUCCUUAUAAU [Atcein] (puzzle: Sensor v3, turn-off variant 2)	–	–	10.2	apparent KD of MS2 coat protein [2]: 13.2 nM; apparent KD of MS2 coat protein [4]: 11.1 nM
AGCUGUGGCCGAGGAUAUCUAAACCUUCAAACCGAAAUAUAAUCGGACAUGAGGAUCACCCAUGUAGAGAAGGCGGUCUCAGCA [Eli eng2 - 034] (Eterna round: R96, puzzle: Exclusion NG 2)	–	–	–	apparent KD of MS2 coat protein [1]: 9.91 nM
CUCUUGUCAGGAUAUCUUACAUAACAAUCGUAGUUACAAUUGGAGAAGGGACAUGAGGAUCACCCAUGUUAGCG [tap-tap-tappy34] (Eterna round: R97, puzzle: Exclusion 4)	337	149	–	–
CCCGGGCCUGUGAGGAUAUGUUUGGGUAAACCCGGGCAGAAGGCACAUGAGGAUCACCCAUGUAAGGGUUUGGG [-29.6, -27.5 kcal, A 23%, 5bbis-5bbis] (Eterna round: R97, puzzle: Brourd's mod of Exclusion 4)	22.6	34.5	–	–
ACACUGCGAGGAUAUACAUGAGGAUCACCCAUGUGUCGGCAGGUACGGUAGCACUAGUGUAGAAGGCGCAUUAG [EX3 #40] (Eterna round: R97, puzzle: Exclusion 3)	17	15.4	–	–
UAACAAGCUUUAAGAUCCUACAUGAGGAUCACCCAUGUGCUCGUCUUGUAACGUACUGUGACGAAAGUCACGGUACG [JL TOV1 3.16] (Eterna round: R97, puzzle: Sensor, turn-off variant 1)	236	231	–	–
CCGAAGUGGCGGUCCUAUGACAUGAGGAUCACCCAUGUACUUCGCCACGAGCUUUUUGCUCGUCUUAUAGUUCUCGG [Sensor v3, turn-off variant 1 (MOD of Ator)] (puzzle: Sensor v3, turn-off variant 1)	–	–	32.4	apparent KD of MS2 coat protein [2]: 435 nM; apparent KD of MS2 coat protein [4]: 504 nM
GCAGGUUAAGUCAGGAUAUACCUAUGGAUACAUAGGUAGAAGGGACAUGAGGAUCACCCAUGUGACUCACCUGC [Fiskers BMX 4 - 59] (puzzle: Brourd's mod of Exclusion 4)	–	–	25.1	–
AAACUGUGAGGAUAUGGUGAGUAGUGCCUGAGCGCUGCUCACCAGAAGGCACAUGAGGAUCACCCAUGUAUAAC [Mat - Exclusion 4 - Mod of JL - D5] (puzzle: Exclusion 4)	–	–	22.4	–
GAAUAGCAAGCGAGAUCCCACAUGAGGAUCACCCAUGUGCUCGUCUUAUAAAGUACUGUGACGAGAGUCACGGUACA [Mat - Sensor, turn-off var - Eli Mod - D14] (Eterna round: R97, puzzle: Sensor, turn-off variant 1)	14.3	16.1	–	–
UCACGGGACUAAGGAUAUACAUGAACCAUUUUUGUAGAAGGUAGAAUGUUUGAUCAUAAACUAAACAUGAGGAUCACCCAUGUU [JR_ExcNG1_Sub090] (Eterna round: R96, puzzle: Exclusion NG 1)	–	–	–	apparent KD of MS2 coat protein [1]: 16.9 nM
CGUCCUGAUGACAACUUACAUGAGGAUCACCCAUGUGCCUCGCAGGAUAUCCCAGCACGUCGCAAGGAGAAGGGCGACGCGCCA [Ceeninge] (Eterna round: R96, puzzle: Exclusion NG 3)	18	19	–	apparent KD of MS2 coat protein [1]: 13.7 nM
GGGUAGUGAGGAUAUCGUUGUUAGGAGGAGUAGGUAGGAGGCGAGAAGGCACAUGAGGAUCACCCAUGUAUGGA [JR_Exclu4_Sub067] (puzzle: Exclusion 4)	–	–	30.7	–
AUCUGUGAGCGAGGAUAUCUGCUGUUGUCGGUCGGAGAAGGCGCGGACAGAACAUGAGGAUCACCCAUGUGUAUGGGCGGCCUC [Isvetima] (Eterna round: R96, puzzle: Exclusion NG 1)	256	99.6	–	apparent KD of MS2 coat protein [1]: 14.1 nM
AAAAGGCAGGGAGGAUAUGCUUGCCUGGGUCGUCUUCAAACAUGAGGAUCACCCAUGUAGUCGACGCAGAAGGCCCUCAAAGCC [Mat - Exclusion NG 2 - Mod of JL - D61] (Eterna round: R96, puzzle: Exclusion NG 2)	65.2	16.5	–	apparent KD of MS2 coat protein [1]: 12.1 nM

Sequence	apparent KD of MS2 coat protein (input ligand: FMN 200 uM) [nM]	apparent KD of MS2 coat protein (input ligand: none) [nM]	apparent KD of MS2 coat protein [3] [nM]	further results
AGAUGGCGAGGAUAUACAUGAGGAUCACCCAUGUGAAGAAUAAUAGUGAGGAAGAAAAGUAGAAGGCGCUGUCA [Mat - Exclusion 3 - Mod of Salish D33] (puzzle: Exclusion 3)	–	–	37	–
GAUCGACAUGAGGAUCACCCAUGUCAGGAUAUCUACAUUGAAGCUGCGGCUUCAAUGUAGAGAAGGGAUAUAAU [E1/16-B1] (Eterna round: R97, puzzle: Exclusion 1)	36.9	27.2	–	–
AUAAAAGUAGGAUAUUGACUGAUCGACAUGAGGAUCACCCAUGUGGUGCUGUGCGGUAUUCAAGAAGGGCUAAAAU [Ceisusma] (puzzle: Exclusion 5)	–	–	20.4	–
CCGGAAAUACAGGAUAUAGGAGUCAAUAGACUCCUAGAAGGGUAUACAUGAGGAUCACCCAUGUGUCCUACCGG [Fiskers Ex 6 - 66] (Eterna round: R96, puzzle: Exclusion 6)	39.9	27.7	–	apparent KD of MS2 coat protein [1]: 23.3 nM
GCACGGUAAGUGAGGAUAUACCUCUGGAUACAGAGGUAGAAGGCACAUGAGGAUCACCCAUGUCUAUACCGUGC [Fiskers BMX 4 - 81] (puzzle: Brourd's mod of Exclusion 4)	–	–	13.6	apparent KD of MS2 coat protein [2]: 20.3 nM; apparent KD of MS2 coat protein [4]: 13.8 nM
CCAAGAAUAGGAUAUACACCAUGUCAGCUUCUAUACAACGCACAUGAGGAUCACCCAUGUAGAAGGGUUCUCUC [Exclusion-2-#3] (Eterna round: R97, puzzle: Exclusion 2)	386	433	–	–
GUCACAUGGGUGUAGAAUCACAUGAGGAUCACCCAUGUGACUAACAAGCUUUUUGCUCGUCUUAUGUCUAUGUGAAU [Stov1/17-A2] (Eterna round: R97, puzzle: Sensor, turn-off variant 1)	23.3	37.2	–	–
UAAUUAAGUGUGAGGAUAUGCUGGUCCUUGGAUCAGCAGAAGGCACAUGAGGAUCACCCAUGUAAUUUAUAUAU [Mat - Exclusion 4 - JL Mod - D52] (puzzle: Brourd's mod of Exclusion 4)	–	–	85.5	–
CGCGUAGGAGGAUAUAUGGCAUACAACAUGAGGAUCACCCAUGUAGUCGCACGUUGGGAUAUAGAAGGCCUGCGAA [Eternabot (L1) Solution 87] (Eterna round: R97, puzzle: Exclusion 5)	18.3	20	–	–
AGCAUGCUAGGAUAUACGAAACAUUAGGGUUCUUUGUAUGAACAUGAGGAUCACCCAUGUAGAAGGAGCGUGCA [Mat - Exclusion 2 - Mod of Hyphema - D96] (puzzle: Exclusion 2)	–	–	82.5	–
GUGCGGUGAGGAUAUACGUAGGUGAAAAUCUGUGUGCUCCUACAUGAGGAUCACCCAUGUAGAAGGCAUGUCAC [LRO-Excl2-15] (puzzle: Exclusion 2)	–	–	14.7	–
CUGAGGUAGCGGUCCUAUGACAUGAGGAUCACCCAUGUACCUUGCUACAAGCUUUUUGCUCGUCUUAUGAUUCUCGG [JL Atriat mod 8] (puzzle: Sensor v3, turn-off variant 1)	–	–	123	apparent KD of MS2 coat protein [2]: 58.1 nM; apparent KD of MS2 coat protein [4]: 70.2 nM
GUUAAACAUGAGGAUCACCCAUGUAAGGAUAUGCUGCGGUCGCGAUGACGUGACUGCAGCAGAAGGUACAAAUG [Mat - Mod of JL D58] (puzzle: Exclusion 1)	–	–	69.7	–
AAGAACUUAGGAUAUACAUGAGGAUCACCCAUGUAGCUUCACUUGGGCCUGAGCCCGUGUAGAAGGAAGAAAAU [Arge] (puzzle: Exclusion 3)	–	–	66	–
AGUCAGGCGGUAGGAUAUCCAAACCGAGUGACCCUUUCAUAACAUGAGGAUCACCCAUGUCGGUGGGAGAAGGGCCGUACGGCG [JL ViennaUCT Atra mod 2] (Eterna round: R96, puzzle: Exclusion NG 2)	305	343	–	apparent KD of MS2 coat protein [1]: 145 nM
CCAGCGUAUGUGAGGAUAUGCUGGUCCUUGGAUCAGCAGAAGGCACAUGAGGAUCACCCAUGUGAGAACGUUGG [JL bmx4 3.38] (puzzle: Brourd's mod of Exclusion 4)	–	–	24.6	–
